Data: patent US7884067B2, “Peptides derived from cadherin and methods of use thereof” (Mount Sinai School of Medicine of New York University, priority 2001, dated 2011)

B1: N-Cad/CTF2: chicken cytoplasmic domain of N-cadherin (N-Cad/CTF2) inserted into vector pECE, expressed in L cells (protein)
chain: KRRDKERQAKQLLIDPEDDVRDNILKYDEEGGGEEDQDYDLSQLQQPDTVEPDAIKPVGIRRLDERPIHAEPQYPVRSAAPHPGDIGDFINEGLKAADNDPTAPPYDSLLVFDYEGSGSTAGSLSSLNSSSSGGEQDYDYLNDWGPRFKKLADMYGGGDD

What was measured:
[1] = system: N-cadherin; assay: In vitro ε-cleavage assay, membranes from embryonic fibroblast cultures (WT / PS1 P264L knock-in study); type: biochemical, mouse; settings: FIG. 13A lanes 1 and 2
Experimental: In vitro γ-secretase-like ε-cleavage assay. Cells were washed in PBS, resuspended in 1 ml of 4° C. hypotonic buffer (10 mM MOPS, pH 7.0, 10 mM KCl) and homogenized on ice. A post-nuclear supernatant was prepared by centrifugation at 1000×g for 15 minutes at 4° C. Crude membranes were isolated from the post-nuclear supernatant by centrifugation at 16,000×g for 40 minutes at 4° C. The membranes were then resuspended in […] of assay buffer (150 mM sodium citrate, pH 6.4, 1× Complete protease inhibitor cocktail), and incubated at 37° C. for 2 hours. Samples were either analyzed directly by WB or separated into pellet (P100) and supernatant (S100) fractions by ultracentrifugation for 1 hour at 100,000×g at 4° C. The S100 and P100 fractions were then analyzed by WB.
To investigate the consequences of FAD mutations in a physiologically relevant system in the absence of PS1 overexpression, the ε-cleavage of N-cadherin was examined in two independent embryonic fibroblast clones derived from a gene-targeted (knock-in) mouse homozygous for the human PS1 FAD mutation P264L (Siman et al. (2000) J. Neurosci. 20:8717-8726). Expression of the knock-in mutant PS1 allele is under the control of the endogenous PS1 gene. These models are distinct from overexpressing transgenic models because the mutant gene is expressed at normal levels, similar to those observed in WT models (FIG. 13, panel d). […]

[2] = biological target: T1, CBP (Mus musculus, UniProt P45481); assay: Nuclear/cytosolic fractionation of transfected L cells (Western blot); type: cell-based
T1 construct: a process that relies on endogenous CBP and CREB; endogenous in cells; host or cells: L cells transfected with vector or pN-Cad/CTF2
Experimental: Subcellular fractionation. Transfected cells were washed in PBS, placed into 1 ml of buffer A (20 mM Tris-HCl, pH 7.5, 0.25 M sucrose, 10 mM EGTA, 2 mM EDTA, Ix Complete protease inhibitor cocktail), and then passed through a 27 gauge needle 10 times. Obtained lysates were centrifuged at 500×g for 10 minutes and pellets (nuclear fraction) were washed twice with 1 ml of buffer A containing 0.1% Triton X-100 and solubilized by sonication in RIPA buffer. Supernatants were centrifuged at 120,000×g for 45 minutes at 4° C. to separate cytosolic and crude membrane fractions. A 50 μg protein aliquot from the nuclear and cytosolic fractions was analyzed on WBs.
To determine how N-Cad/CTF2 affects CREB-mediated transcription, the following experiments were performed. L cells transfected either with vector (vector) or pN-Cad/CTF2 (N-Cad/CTF2) plasmids were fractionated into nuclear and cytosolic fractions, and probed on WBs with anti-CBP (FIG. 11A, panel a), anti-N-cadherin (FIG. 11A, panel b), anti-β-tubulin (FIG. 11A, panel c) or anti-phosphorylated CREB (P-CREB; FIG. 11A, panel d) antibodies. Extract from pN-Cad/CTF2-transfected L cells was immunoprecipitated either with non-immune serum (NI) or with antibodies against CBP (CBP), β-tubulin (β-Tub), E-cadherin (C36) or N-cadherin (C32). Obtained IPs were probed with anti-CBP (FIG. 11B, upper panel), anti-N-cadherin (FIG. 11B, middle panel) or anti-β-tubulin (FIG. 11B, lower panel) antibodies. For reference, cell lysate was also probed (FIG. 11B, first lane). L cells transiently transfected with pN-Cad/CTF2 were analyzed by immunofluorescence staining. Cells were triple-labeled with DAPI (blue), anti-CBP (red) and anti-N-cadherin (C32; green) antibodies. Nuclear extract from pN-Cad/CTF2-transfected L cells were incubated with biotinylated double-stranded DNA probes containing binding sequence for either CREB (FIG. 11C, left panel) or MEF-1 (FIG. 11C, right panel). […]

[3] = system: MEF-1; assay: Electrophoretic mobility shift assay, MEF-1 probe; type: biochemical; settings: FIG. 11C lanes 12-14
Experimental: Electrophoresis mobility shift assay (EMSA). Nuclear extract from CBP-transfected L cells were prepared using the extraction kit N-XTRACT (Sigma) according to manufacturer's instructions. Ten microgram of nuclear extract was used for EMSA performed according to manufacturer's instructions using biotinylated double-stranded oligonucleotide probes containing DNA-binding motifs for CREB or MEF-1 (Panomics). Probes are as follow: CREB, 5′-[…]-3′ (SEQ ID NO: 17); MEF-1,5′-[…]-3′ (SEQ ID NO: 18). Reaction products were separated on 6% polyacrylamide gels in cold TBE buffer (50 mM Tris-HCl, 45 mM Boric acid, 0.5 mM EDTA), transferred to nylon membranes (Immobilon-Ny+, Millipore) and bound probes were immobilized for 30 minutes at 85° C. and visualized by chemiluminescence using streptavidin-HRP conjugate. For antibody supershift analysis, nuclear extract was incubated for 3 hours at 4° C. with […] of 1 B6 antibody prior to probe addition. Where indicated, nuclear extract ([…]) was immunoprecipitated with A-22 antibody ([…]) and protein A-agarose in EBC buffer (50 mM Tris, pH 8, 120 mM NaCl, 0.5% NP40, 1× Complete protease inhibitor cocktail).

T1 sequence (P45481 whole entry): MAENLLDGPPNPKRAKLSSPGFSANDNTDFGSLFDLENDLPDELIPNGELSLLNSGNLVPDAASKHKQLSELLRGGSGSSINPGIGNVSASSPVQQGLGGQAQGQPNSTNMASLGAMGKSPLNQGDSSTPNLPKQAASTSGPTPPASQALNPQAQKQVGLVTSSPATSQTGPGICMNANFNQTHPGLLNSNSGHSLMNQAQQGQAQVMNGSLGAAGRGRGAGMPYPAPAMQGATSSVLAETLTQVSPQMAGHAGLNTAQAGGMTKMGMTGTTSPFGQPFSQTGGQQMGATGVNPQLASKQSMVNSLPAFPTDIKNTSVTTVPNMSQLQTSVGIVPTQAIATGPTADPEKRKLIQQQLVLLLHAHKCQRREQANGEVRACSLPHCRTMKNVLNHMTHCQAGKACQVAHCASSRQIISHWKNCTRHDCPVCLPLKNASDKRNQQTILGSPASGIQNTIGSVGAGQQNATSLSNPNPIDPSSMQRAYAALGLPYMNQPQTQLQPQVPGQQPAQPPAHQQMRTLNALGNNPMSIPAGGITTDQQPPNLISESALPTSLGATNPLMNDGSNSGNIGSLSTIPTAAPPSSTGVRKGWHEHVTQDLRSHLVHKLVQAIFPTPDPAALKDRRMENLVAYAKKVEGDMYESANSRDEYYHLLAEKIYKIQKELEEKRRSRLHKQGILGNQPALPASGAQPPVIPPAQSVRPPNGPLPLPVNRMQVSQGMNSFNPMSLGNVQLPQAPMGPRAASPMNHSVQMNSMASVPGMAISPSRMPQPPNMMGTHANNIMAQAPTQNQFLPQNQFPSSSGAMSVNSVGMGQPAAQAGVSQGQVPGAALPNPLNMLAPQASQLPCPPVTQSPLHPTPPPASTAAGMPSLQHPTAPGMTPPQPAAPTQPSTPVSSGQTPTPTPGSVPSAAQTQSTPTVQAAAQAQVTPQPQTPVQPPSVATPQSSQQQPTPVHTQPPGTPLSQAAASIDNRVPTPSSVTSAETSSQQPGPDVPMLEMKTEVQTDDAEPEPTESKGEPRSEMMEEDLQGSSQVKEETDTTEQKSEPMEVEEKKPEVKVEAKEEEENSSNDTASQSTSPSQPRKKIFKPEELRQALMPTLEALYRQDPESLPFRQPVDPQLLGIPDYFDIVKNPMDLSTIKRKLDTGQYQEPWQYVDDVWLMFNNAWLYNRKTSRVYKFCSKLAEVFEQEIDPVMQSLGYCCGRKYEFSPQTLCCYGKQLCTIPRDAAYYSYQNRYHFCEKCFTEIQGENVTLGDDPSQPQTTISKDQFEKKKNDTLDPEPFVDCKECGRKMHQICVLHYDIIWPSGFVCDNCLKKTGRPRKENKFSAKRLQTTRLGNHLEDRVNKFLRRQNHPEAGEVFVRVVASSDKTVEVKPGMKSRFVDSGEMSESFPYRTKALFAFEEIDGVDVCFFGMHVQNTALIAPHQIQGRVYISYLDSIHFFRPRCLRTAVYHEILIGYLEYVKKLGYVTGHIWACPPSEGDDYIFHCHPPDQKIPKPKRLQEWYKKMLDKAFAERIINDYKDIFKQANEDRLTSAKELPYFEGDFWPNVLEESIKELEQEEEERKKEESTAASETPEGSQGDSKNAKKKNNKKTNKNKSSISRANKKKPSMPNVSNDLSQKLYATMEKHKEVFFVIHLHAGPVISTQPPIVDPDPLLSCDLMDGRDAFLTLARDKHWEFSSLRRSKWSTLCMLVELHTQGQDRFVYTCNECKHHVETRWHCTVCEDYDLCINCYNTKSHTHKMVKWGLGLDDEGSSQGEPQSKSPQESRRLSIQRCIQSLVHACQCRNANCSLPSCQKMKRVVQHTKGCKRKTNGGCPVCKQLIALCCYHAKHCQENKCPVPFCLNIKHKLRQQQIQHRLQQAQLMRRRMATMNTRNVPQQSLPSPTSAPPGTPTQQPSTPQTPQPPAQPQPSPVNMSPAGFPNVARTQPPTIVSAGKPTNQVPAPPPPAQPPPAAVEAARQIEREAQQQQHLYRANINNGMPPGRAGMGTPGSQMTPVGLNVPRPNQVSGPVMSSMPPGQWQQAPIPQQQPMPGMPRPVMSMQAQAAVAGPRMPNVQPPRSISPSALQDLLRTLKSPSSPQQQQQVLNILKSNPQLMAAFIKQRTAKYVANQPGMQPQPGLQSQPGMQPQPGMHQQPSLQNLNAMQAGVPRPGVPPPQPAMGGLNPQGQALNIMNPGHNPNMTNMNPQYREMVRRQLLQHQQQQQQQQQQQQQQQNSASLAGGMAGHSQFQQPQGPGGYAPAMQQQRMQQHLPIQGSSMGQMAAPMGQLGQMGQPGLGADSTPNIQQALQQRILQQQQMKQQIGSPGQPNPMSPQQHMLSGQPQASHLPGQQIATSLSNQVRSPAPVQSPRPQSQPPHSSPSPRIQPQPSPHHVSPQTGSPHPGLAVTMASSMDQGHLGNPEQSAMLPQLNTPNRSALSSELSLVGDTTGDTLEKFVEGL

Molecule	production of N-Cad/CTF2 [1]	change of CREB phosphorylation ([2]; N-Cad/CTF2 overexpression, FIG. 11A panel d)	localization of phosphorylated CREB ([2]; transfection with N-Cad/CTF2, FIG. 11A panel d)	nuclear and cytosolic CBP ([2]; transfection with N-Cad/CTF2 vs vector, FIG. 11A)	complex formation between MEF-1 and DNA probe containing MEF-1-binding elements [3]
CC(C)C[C@H](NC(=O)[C@H](Cc1ccccc1)C[C@@H](O)[C@H](Cc1ccccc1)NC(=O)OC(C)(C)C)C(=O)N[C@@H](Cc1ccccc1)C(N)=O [L-685,458]	sensitive	–	–	–	–
B1	–	not detected	no effects	nuclear CBP decreased with a concomitant increase in cytosolic CBP	no effect
